Test results reported in PMC4537474 (Protein & Cell, 2015).

What was measured:
FadR_she [1] = target: T1, FadR_she (Shewanella oneidensis, UniProt Q8ED80 1-240); experiment: EMSA; 5 pmol protein, 0.2 pmol probe; EMSA: Roche binding buffer, 20 min, room temperature, 0.2 pmol DIG probe (10 uL in Fig. 6), 7% native PAGE; SPR: Biacore3000, 20 mM Tris-HCl pH 7.5, 200 mM NaCl
FadR_ec [2] = target: T2, FadR_ec (Escherichia coli (K-12), UniProt P0A8V6 1-239); experiment: as above
FadR_vc = FadR_vc (Vibrio cholerae, UniProt Q9KQU8 1-279); experiment: EMSA; 5 pmol protein; super-shifted band attributed to multimer; EMSA: Roche binding buffer, 20 min, room temperature, 0.2 pmol DIG probe (10 uL in Fig. 6), 7% native PAGE; SPR: Biacore3000, 20 mM Tris-HCl pH 7.5, 200 mM NaCl
FadR_she [3] = target: T1, FadR_she; experiment: SPR; 2:1 (FadR dimer per DNA); EMSA: Roche binding buffer, 20 min, room temperature, 0.2 pmol DIG probe (10 uL in Fig. 6), 7% native PAGE; SPR: Biacore3000, 20 mM Tris-HCl pH 7.5, 200 mM NaCl
FadR_ec [4] = target: T2, FadR_ec; experiment: EMSA; C10:0-CoA ~50 pmol; EMSA: Roche binding buffer, 20 min, room temperature, 0.2 pmol DIG probe (10 uL in Fig. 6), 7% native PAGE; SPR: Biacore3000, 20 mM Tris-HCl pH 7.5, 200 mM NaCl
[5] = target: the molecule itself; experiment: SEC; Superdex 75 column on an Akta FPLC, 0.35 mL/min, 20 mmol/L Tris-HCl, 50 mmol/L NaCl, pH 7.9; peak at 10.5 mL, between the 44 kDa and 67 kDa standards

T2 sequence (P0A8V6 whole entry): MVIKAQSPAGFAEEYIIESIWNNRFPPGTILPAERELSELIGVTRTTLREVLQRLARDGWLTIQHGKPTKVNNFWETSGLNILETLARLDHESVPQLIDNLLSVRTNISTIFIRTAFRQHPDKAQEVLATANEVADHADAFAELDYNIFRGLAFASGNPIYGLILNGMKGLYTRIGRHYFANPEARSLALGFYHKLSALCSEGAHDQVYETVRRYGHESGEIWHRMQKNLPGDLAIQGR
Chain of FadR_vc (Q9KQU8 whole entry): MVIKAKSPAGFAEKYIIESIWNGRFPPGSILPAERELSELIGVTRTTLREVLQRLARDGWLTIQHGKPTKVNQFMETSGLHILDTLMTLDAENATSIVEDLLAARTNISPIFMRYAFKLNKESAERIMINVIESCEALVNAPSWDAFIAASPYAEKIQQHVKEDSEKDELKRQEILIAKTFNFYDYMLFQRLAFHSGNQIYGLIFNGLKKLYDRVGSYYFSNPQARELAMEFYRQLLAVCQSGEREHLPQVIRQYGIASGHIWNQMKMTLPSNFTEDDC

B1: fabA_ec probe (dsDNA)
DNA 1: TTTATTCCGAACTGATCGGACTTGTTCAGCGTACACGTGTTAGCTATCCTGCGTGC
DNA 2: GCACGCAGGATAGCTAACACGTGTACGCTGAACAAGTCCGATCAGTTCGGAATAAA
- binding result (FadR_she [1]): binds
- binding result (FadR_ec [2]): binds
- binding result (FadR_vc): binds

B2: fabB_ec probe (dsDNA)
DNA 1: TCTATTAAATGGCTGATCGGACTTGTTCGGCGTACAAGTGTACGCTATTGTGCATTC
DNA 2: GAATGCACAATAGCGTACACTTGTACGCCGAACAAGTCCGATCAGCCATTTAATAGA
- binding result (FadR_she [1]): binds
- binding result (FadR_ec [2]): binds
- binding result (FadR_vc): binds

B3: fabA_she probe, biotinylated (dsDNA)
DNA 1: GACATTAATTAGCTGATCGGAGTTGTTTAGCTTACACGTGTTCGCTAATCTTGGCG
DNA 2: CGCCAAGATTAGCGAACACGTGTAAGCTAAACAACTCCGATCAGCTAATTAATGTC
- Kd (FadR_she [3]): ~0.436 µM

B4: fabA_she probe (dsDNA)
DNA 1: GACATTAATTAGCTGATCGGAGTTGTTTAGCTTACACGTGTTCGCTAATCTTGGCG
DNA 2: CGCCAAGATTAGCGAACACGTGTAAGCTAAACAACTCCGATCAGCTAATTAATGTC
- binding result (FadR_ec [4]): binds

B5: Shewanella oneidensis FadR protein (natural protein, Shewanella oneidensis MR-1, UniProt Q8ED80 1-240, looked up)
chain: MIINAKGPASFAEKYIVRSIWENKFPPGSILPAERELSELIGVTRTTLREVLQRLARDGWLKIQHGKPTRVNNFWETSGLNILETIADLNPEGFPVLVDQLLSARTNVSAIYFRGALRNNPDTAMEVLAQIHQLEDTAESFAEYDYLLHHTLAFSSGNPLYVLILNGFKGLYSRVGRYYFSSSEARQLALNFYKELELLAKAKNYLDVPALMRTYGINSGKMWLQLRDDMPSSIAQQDSH
- stoichiometry N [5]: 2
